Experimental data taken from patent publication US5874209.

Key:
[1] = system: LAP(Asp105)/GAL4 chimera S105D (/ Saccharomyces cerevisiae); assay: cell_activity; settings: luciferase relative to LAP(Ser105)/GAL4
[2] = system: T1, NF-IL6/LAP (wild type, C/EBP beta), P21272-2; assay: cell_activity; settings: increase in CAT transactivation with PKC alpha plus TPA, HepG2
T1 sequence: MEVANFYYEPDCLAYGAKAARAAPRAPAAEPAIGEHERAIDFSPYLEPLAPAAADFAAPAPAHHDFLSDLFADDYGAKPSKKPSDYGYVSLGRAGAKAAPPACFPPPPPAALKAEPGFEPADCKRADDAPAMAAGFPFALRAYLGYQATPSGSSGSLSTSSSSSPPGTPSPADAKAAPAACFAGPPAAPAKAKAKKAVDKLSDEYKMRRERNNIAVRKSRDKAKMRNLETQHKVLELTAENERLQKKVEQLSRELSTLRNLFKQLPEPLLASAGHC

Row | Substance | activity [1] | activity [2]
1 | 5xGAL4-LUC reporter GAL4 sites | 3 fold | –
2 | D-CAT reporter (albumin D-site) | – | 5 fold
